# Results as given in article PMC10498682, “Selection of optimised ligands by fluorescence-activated bead sorting†”.
# Target: EGFR extracellular domain, Fc fusion (EGFR-Fc) (UniProt P00533 25-644)
# Test: ELISA-type plate assay; EGFR-Fc on protein A 96-well plates, biotinylated aptamer, streptavidin-AP chemiluminescence, n = 3; buffer, salt, pH and temperature not in the material
# Conditions: protein: recombinant; tags: Fc; chain copies: 2; label: 5'-biotin; single strand
row,Binder,Kd
1,"CGGAUUUAAUCGCCGUAGAAAAGCAUGUCAAAGCCGGAACCGUCC (structured_RNA, 2'-F on all C and U; 5-phenyl-U at 6,7,43 (U2,U3,U8); 5-iodo-U at 16 (U5); lacks 5' GGA) [MinE07UA-Biotin]",1.53 ± 0.13 nM
2,"GGAUUUAAUCGCCGUAGAAAAGCAUGUCAAAGCCGGAACCGUCC (structured_RNA, 2'-F on all C and U; 5-vinyl-U at 4,27 (U1,U7); 5-phenyl-U at 25 (U6); lacks 5' GGAC) [MinE07UC-Biotin]",1.23 ± 0.1 nM
3,"GGACGGAUUUAAUCGCCGUAGAAAAGCAUGUCAAAGCCGGAACCGUCC (structured_RNA, 2'-F on all C and U; 5-vinyl on all 8 U (8,9,10,13,19,29,31,46)) [MinE07-U-Vi-Biotin]",4.62 ± 0.48 nM
4,"GGACGGAUUUAAUCGCCGUAGAAAAGCAUGUCAAAGCCGGAACCGUCC (structured_RNA, 2'-F on all C and U; 5-vinyl-U at 8,31 (U1,U7); 5-phenyl-U at 29 (U6)) [MinE07UC'-Biotin]",1.11 ± 0.45 nM
5,"GGACGGAUUUAAUCGCCGUAGAAAAGCAUGUCAAAGCCGGAACCGUCC (structured_RNA, 2'-F on all C and U; 5-phenyl on all 8 U (8,9,10,13,19,29,31,46)) [MinE07-U-Ph-Biotin]",3.59 ± 0.82 nM
6,"GGACGGAUUUAAUCGCCGUAGAAAAGCAUGUCAAAGCCGGAACCGUCC (structured_RNA, 2'-F on all C and U; 5-phenyl-U at 9,10,46 (U2,U3,U8); 5-iodo-U at 19 (U5)) [MinE07UA'-Biotin]",3.39 ± 0.71 nM
7,"GGACGGAUUUAAUCGCCGUAGAAAAGCAUGUCAAAGCCGGAACCGUCC (structured_RNA, 2'-F on all C and U; 5-phenyl-U at 9,10,19 (U2,U3,U5); 5-iodo-U at 13 (U4)) [MinE07UB-Biotin]",1.47 ± 0.54 nM
8,"GGACGGAUUUAAUCGCCGUAGAAAAGCAUGUCAAAGCCGGAACCGUCC (structured_RNA, 2'-F on all C and U; 5-iodo on all 8 U (8,9,10,13,19,29,31,46)) [MinE07-U-I-Biotin]",2.05 ± 0.26 nM

# Same assay, conditions: protein: recombinant; tags: Fc; chain copies: 2; label: 5'-biotin; single strand; 5' and 3' ends base pair, three loops (predicted)
row,Binder,Kd
1,"GGACGGAUUUAAUCGCCGUAGAAAAGCAUGUCAAAGCCGGAACCGUCC (structured_RNA, 2'-F on all C and U; A and G ribo) [MinE07-Biotin]",3.7 ± 0.38 nM
